# Target: rRABV-G-XVIII (rabies virus glycoprotein ectodomain fused to the human collagen XVIII trimerization domain) (rabies virus strain CVS-11 | human)
# Assay: SEC
substance,measurement,value
rRABV-G-XVIII (rabies virus glycoprotein ectodomain fused to the human collagen XVIII trimerization domain),percent trimeric protein,96.3%
same,stoichiometry N,3
